# Patent US20220251233A1 (VERSEAU THERAPEUTICS, published 2022)
# Changes are numbered by the printed parent chain.
# T1: Human CD53-CHO (full-length human CD53 over-expressed on CHO-K1 cells) (human, UniProt P19397 1-219)
# T1 construct: Tetraspanin cell-surface antigen
# T1 sequence: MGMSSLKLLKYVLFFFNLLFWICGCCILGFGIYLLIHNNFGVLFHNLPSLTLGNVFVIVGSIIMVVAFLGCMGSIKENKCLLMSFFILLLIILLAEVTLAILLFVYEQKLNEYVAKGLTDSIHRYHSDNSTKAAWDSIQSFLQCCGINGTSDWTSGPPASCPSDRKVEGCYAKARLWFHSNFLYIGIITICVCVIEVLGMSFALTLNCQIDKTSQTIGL
# B1: 4J16 (antibody, V domains shown)
# VH: EVQLQQSGAELVRPGASVRLSCTASGFNIKDDFLHWVNQRPEQGLEWIGRIDPANGNTKYAPKFRDRATITADTSSNTAYLQLSSLTSEDTAVYYCVRVYGDYWGQGTTLTVSS
# VL: DIVMTQAAFSNPVTLGTSASISCRSSKSLLHSNGITYLYWYLQKPGQSPQLLIYQMSNLASGVPDRFSSSGSGTDFTLRISRVEAEDVGVYYCAQNLELPLTFGAGTKLELK
# notes: Murine anti-human CD53 mAb purified from subcloned hybridoma; detected with anti-mouse IgG
# B2: 4G15 (antibody, V domains shown)
# VH: EVQLQQSGAELVRPGASVKLSCTTSGFNIKDDFMHWVKQRPEQGLEWIGWIDPENGNTQYASKFQGKATITADTSSNTAYLQLSSLTSEDTAVYYCTSYYEETMDYWGQGTSVTVSS
# VL: B1 VL with R24S, K44R, Q55R, S69G, N96M, L99R, L101R, A105G, L111I
# notes: as for B1
# B3: 4K13 (antibody, V domains shown)
# VH: EVQLQQSVAELVRPGASVKLSCTASGLNIKNTYMNWVKQRPEQGLEWIGRIDPANGYTKYAPKFQGKTTITAATSSNTAFLQLSSLTSGDTAIYYCTTAVVATGDYWGQGTTLTVSS
# VL: B1 VL with N33D, Y41F, K44R, Q55R, S69G, N96M, L99F, L101F, A105T, L111I
# notes: as for B1
# B4: 3G02 (antibody, V domains shown)
# VH: EVQLQQSVAELVRPGASVKLSCTASGFNIKNTYMHWVKQRPEQGLEWIGRIDPAIGYTEYAPKFQGKATITADTSSNTAWLQLSSLTSEDTAIYYCAGGGPYYAMDYWGRGTSVTVSS
# VL: DIVMTQAAPSIPVTPGESVSISCRSSKSLLHSNGDTYLYWFLQRPGQSPQVLIYRMSNLASGVPARFSGSGSGTAFTLRISRVEAEDVGVYYCMQHLEYPFTFGAGTKLELK
# notes: as for B1
# B5: 4C22 (antibody, V domains shown)
# VH: EVQLQQSGAELVRPGASVKLSCTASGFNIKDDFMNWVKQRPEQGLEWIGRIDPANGHTKYAPKFQDKATITADTSSNTAFLHLSSLTSEDTAVYFCARWIPPYWGQGTLVTVSA
# VL: B4 VL with I11V, V19A, V51L, A65D, H96L, F101Y, A105G, L111I
# notes: as for B1
# B6: 4L19 (antibody, V domains shown)
# VH: QVQLQQSGAELMKPGASVKLSCKATGYTFTGYWIEWVKQRPGHGLEWIGEISSGGYNTNYNKKFKGKATFTVDTSSNTAYMQLSSLTTEDSAIYYCTRDSNDYYFDYWGQGTTLTVSS
# VL: DVVMTQTPLTLSVTIGQPASISCKSSQSLLHRNGKTHLNWLLQRPGQSPKLLIYLVSKLESGVPDRFSGSGSGTDFTLRISRVEAEDLGVYYCLQVTHFPYTFGSGTKLEIK
# notes: as for B1
# Target: T1, Human CD53-CHO (full-length human CD53 …)
# Assay: flow cytometry on CD53-CHO cells, anti-mouse IgG AF647 gMFI, 4-parameter fit
# Procedure: Binding of anti-human CD53 antibodies was determined by flow cytometry for their ability to bind human CD53-CHO cells compared to parental CHO-K1 cells. All assay steps were performed in FACS buffer (phosphate buffered saline pH 7.4 supplemented with 2% fetal bovine serum). Twenty thousand cells were seeded in 384-well plates and washed twice with ice cold buffer. Cells were incubated with purified antibodies titrated 3-fold from 200 nM to 0.09 nM at 4° C. for 1 hour with gentle agitation, then washed twice with FACS buffer and incubated with anti-mouse IgG Alexa Fluor® 647 and incubated at 4° C. for 40 minutes. Cells were washed twice and resuspended in FACS buffer. Analysis was preformed on the IntelliCyt® iQue Screener and gMFI values for Alexa Fluor® 647 were generated. EC50 values were determined in GraphPad Prism8. Concentration was transformed from nM to Log 10 nM and curves were fit with a nonlinear regression of log(agonist) vs. response−Variable slope (four parameters) or Y=Bottom+(Top−Bottom)/(1+10\hat{ }((LogEC50−X)*HillSlope)). EC50 values for all anti-human CD53 antibodies can be found in Table 6, and representative binding curves can be found in FIG. 7. Binding to CD53-CHO is represented by closed symbols and binding to parental CHO-K1 cells is represented by open symbols.
binder,measurement,value
B1,EC50,1.6 nM
B2,EC50,3.8 nM
B3,EC50,~1 nM
B4,EC50,~7 nM
B5,EC50,~7 nM
B6,EC50,4.3 nM
